Experiments:
Format in all cases: biochemical
[1] = HTP screening assay of LeuB variants, 3-IPM; conditions: 750 μM 3-IPM, 2 mM NAD+, pH 8.0, 25° C.; mean of duplicates
Experimental: (§1) The evaluation of the LeuB variants is performed in two steps using the high-throughput enzyme assay described below. Initially, all of the variants are screened for activity against a single high concentration of 3-IPM, 3-BM and 3-HM. Following the initial evaluation, detailed kinetic analysis is performed on a select number of variants to determine the maximal rate (kcat), Michaelis-Menten constant (KM), and the catalytic efficiency of the variant enzymes (kcat/KM).
(§2) A suitable spectrophotometric LeuB enzyme assay is adapted into a high-throughput format in 96-well plates for the kinetic evaluation of LeuB and its variants (shown in Table 1) against 3-isopropylmalate (3-IPM), 3-butylmalate (3-BM), and 3-hexylmalate (3-HM). See, for example, Hsu, Y.; Kohlhaw, G. B. “Leucine biosynthesis in Saccharomyces cerevisiae. Purification and characterization of beta-isopropylmalate dehydrogenase,” J. Biol. Chem., 1980, 255:7255-7260. Steady state kinetic parameters (kcat, KM and kcat/KM) for the oxidative decarboxylation of the three substrates by the variants are determined in these experiments.
(§3) The HTP screening assay involves incubating 750 micromoles (μM) of 3-IPM, 1 mM 3-BM or 1 mM 3-HM, with 2 mM nicotinamide adenine dinucleotide (NAD^+) in LeuB assay buffer (50 mM 4-(2-hydroxyethyl) piperazine-1-ethanesulfonic acid (HEPES), pH 8.0, containing 30 mM potassium chloride (KCl) and 5 mM magnesium chloride (MgCl2)) at 25° C. The reaction is started by the addition at 25° C. of working enzyme stock containing from 0.3 microgram (μg) to 1.1 μg of LeuB variant diluted in assay buffer containing 1 mM DTT and 1 milligram per milliliter (mg/mL) bovine serum albumin (BSA). The plate containing the 200 μL of reaction mixture is centrifuged at 2500×g for 15 seconds (sec) and the absorbance change of the reaction mixture is followed spectrophotometrically at 340 nm on a BioTek™ plate reader, pre-equilibrated at 25° C. Initial velocity of the enzyme reaction is calculated from the rate of NADH production at 340 nm and using the extinction coefficient of NADH (6.22 per millimolar per centimeter (mM^−1cm^−1)). The activity of all the variants is normalized with the amount of enzyme present in the reaction mixture and expressed as nanomoles per minute per microgram (nmol·min^−1·μg^−1) (Table 2). Protein concentrations for normalizing the activities are determined using the 660 nm total protein assay kit acquired from Pierce Biotechnology Inc.™, available from Thermo Fisher Scientific, Inc., and using BSA as the standard.

[2] = HTP screening assay of LeuB variants, 3-BM; conditions: 1 mM 3-BM, 2 mM NAD+, pH 8.0, 25° C.; mean of duplicates
Experimental: as §1, §2, §3

[3] = HTP screening assay of LeuB variants, 3-HM; conditions: for Specific activity, 3-HM: 1 mM 3-HM, 2 mM NAD+, pH 8.0, 25° C., mean of duplicates; for activity against 3-HM compared with the wild type enzyme: screening at single high concentration
Experimental: as §1, §2, §3

[4] = HTP LeuB kinetic assay, oxidative decarboxylation of 3-IPM; conditions: less efficient than wild type LeuB
Experimental: as §1, §2
(§4) The HTP kinetic assay involves incubating eight varied concentrations, of 3-IPM (from 0 to 1.2 mM) or 3-BM (from 0 to 2 mM) or 3-HM (from 0 to 2 mM), with 2 mM NAD^+ in LeuB assay buffer (50 mM HEPES, pH 8.0, containing 30 mM KCl and 5 mM MgCl2) at 25° C. The reaction is started by adding from 0.008 μg to 0.5 μg of LeuB variant which has been pre-diluted in assay buffer containing 1 mM DTT and 1 mg/mL BSA. The plate containing the 200 μl of reaction mixture is centrifuged at 2500×g for 15 sec and the absorbance change is followed spectrophotometrically at 340 nm on a BioTek™ plate reader maintained at 25° C. Initial velocity of the enzyme reaction is calculated from the rate of NADH production at 340 nm and using the extinction coefficient of NADH (6.22 mM^−1cm^−1). The kinetic parameters (kcat, KM and kcat/KM) of oxidative decarboxylation of 3-alkylmalate are determined by fitting the data to the Michaelis-Menten equation using nonlinear regression performed using the GraphPad Prism™ software. Table 3 lists the kinetic parameters of the wild type and engineered variants against the three substrates. The amount of enzyme in the reaction mixture is determined using the 660 nm total protein assay kit acquired from Pierce Biotechnology Inc.™, using BSA as the standard.

[5] = HTP LeuB kinetic assay, oxidative decarboxylation of 3-HM; conditions: for increase in efficiency of capturing 3-HM compared with the wild type enzyme: more efficient than wild type LeuB; for Km / kcat: substrate 3-HM, mean ± S.D.
Experimental: as §1, §2, §4

[6] = HTP LeuB kinetic assay, oxidative decarboxylation of 3-BM; conditions: substrate 3-BM; mean ± S.D.
Experimental: as §1, §2, §4

Molecule	Specific activity, 3-IPM [1] [nmol/min/µg]	Specific activity, 3-BM [2] [nmol/min/µg]	Specific activity, 3-HM [3] [nmol/min/µg]	activity against 3-HM compared with the wild type enzyme [3]	decrease in efficiency of capturing 3-IPM compared with the wild type enzyme [4]	increase in efficiency of capturing 3-HM compared with the wild type enzyme [5] [fold]	Km [5] [µM]	kcat [5] [s⁻¹]	Km [6] [µM]	kcat [6] [s⁻¹]
V198A: E. coli LeuB variant with Val-198 replaced with alanine (protein, UniProt P30125 2-363, looked up, variant V198A) 3-isopropylmalate …: SKNYHIAVLPGDGIGPEVMTQALKVLDAVRNRFAMRITTSHYDVGGAAIDNHGQPLPPATVEGCEQADAVLFGSVGGPKWEHLPPDQQPERGALLPLRKHFKLFSNLRPAKLYQGLEAFCPLRADIAANGFDILCVRELTGGIYFGQPKGREGSGQYEKAFDTEVYHRFEIERIARIAFESARKRRHKVTSIDKANALQSSILWREIVNEIATEYPDVELAHMYIDNATMQLIKDPSQFDVLLCSNLFGDILSDECAMITGSMGMLPSASLNEQGFGLYEPAGGSAPDIAGKNIANPIAQILSLALLLRYSLDADDAACAIERAINRALEEGIRTGDLARGAAAVSTDEMGDIIARYVAEGV	2.83	1.81	2.5	higher activity than the wild type enzyme	1,000 fold	5	110 ± 10	1.62 ± 0.55	–	–
V198G: E. coli LeuB variant with Val-198 replaced with glycine (protein, UniProt P30125 2-363, looked up, variant V198G) 3-isopropylmalate …: SKNYHIAVLPGDGIGPEVMTQALKVLDAVRNRFAMRITTSHYDVGGAAIDNHGQPLPPATVEGCEQADAVLFGSVGGPKWEHLPPDQQPERGALLPLRKHFKLFSNLRPAKLYQGLEAFCPLRADIAANGFDILCVRELTGGIYFGQPKGREGSGQYEKAFDTEVYHRFEIERIARIAFESARKRRHKVTSIDKANGLQSSILWREIVNEIATEYPDVELAHMYIDNATMQLIKDPSQFDVLLCSNLFGDILSDECAMITGSMGMLPSASLNEQGFGLYEPAGGSAPDIAGKNIANPIAQILSLALLLRYSLDADDAACAIERAINRALEEGIRTGDLARGAAAVSTDEMGDIIARYVAEGV	4.66	1.83	0.5	–	–	–	–	–	–	–
L96V: E. coli LeuB variant with Leu-96 replaced with valine (protein, UniProt P30125 2-363, looked up, variant L96V) 3-isopropylmalate …: SKNYHIAVLPGDGIGPEVMTQALKVLDAVRNRFAMRITTSHYDVGGAAIDNHGQPLPPATVEGCEQADAVLFGSVGGPKWEHLPPDQQPERGALVPLRKHFKLFSNLRPAKLYQGLEAFCPLRADIAANGFDILCVRELTGGIYFGQPKGREGSGQYEKAFDTEVYHRFEIERIARIAFESARKRRHKVTSIDKANVLQSSILWREIVNEIATEYPDVELAHMYIDNATMQLIKDPSQFDVLLCSNLFGDILSDECAMITGSMGMLPSASLNEQGFGLYEPAGGSAPDIAGKNIANPIAQILSLALLLRYSLDADDAACAIERAINRALEEGIRTGDLARGAAAVSTDEMGDIIARYVAEGV	1.53	–	–	–	–	–	–	–	–	–
L96A/V198A: E. coli LeuB variant with Leu-96 and Val-198 both replaced with alanine (protein, UniProt P30125 2-363, looked up, variant L96A V198A) 3-isopropylmalate …: SKNYHIAVLPGDGIGPEVMTQALKVLDAVRNRFAMRITTSHYDVGGAAIDNHGQPLPPATVEGCEQADAVLFGSVGGPKWEHLPPDQQPERGALAPLRKHFKLFSNLRPAKLYQGLEAFCPLRADIAANGFDILCVRELTGGIYFGQPKGREGSGQYEKAFDTEVYHRFEIERIARIAFESARKRRHKVTSIDKANALQSSILWREIVNEIATEYPDVELAHMYIDNATMQLIKDPSQFDVLLCSNLFGDILSDECAMITGSMGMLPSASLNEQGFGLYEPAGGSAPDIAGKNIANPIAQILSLALLLRYSLDADDAACAIERAINRALEEGIRTGDLARGAAAVSTDEMGDIIARYVAEGV	0.65	1.26	3.3	higher activity than the wild type enzyme	–	12	80 ± 10	2.65 ± 0.067	–	–
L96G/V198A: E. coli LeuB variant with Leu-96 replaced with glycine and Val-198 with alanine (protein, UniProt P30125 2-363, looked up, variant L96G V198A) 3-isopropylmalate …: SKNYHIAVLPGDGIGPEVMTQALKVLDAVRNRFAMRITTSHYDVGGAAIDNHGQPLPPATVEGCEQADAVLFGSVGGPKWEHLPPDQQPERGALGPLRKHFKLFSNLRPAKLYQGLEAFCPLRADIAANGFDILCVRELTGGIYFGQPKGREGSGQYEKAFDTEVYHRFEIERIARIAFESARKRRHKVTSIDKANALQSSILWREIVNEIATEYPDVELAHMYIDNATMQLIKDPSQFDVLLCSNLFGDILSDECAMITGSMGMLPSASLNEQGFGLYEPAGGSAPDIAGKNIANPIAQILSLALLLRYSLDADDAACAIERAINRALEEGIRTGDLARGAAAVSTDEMGDIIARYVAEGV	–	1.49	20.4	higher activity than the wild type enzyme	–	102	50 ± 0.5	14.6 ± 0.383	3300 ± 400	4.47 ± 0.35
L96G/V198G: E. coli LeuB variant with Leu-96 and Val-198 both replaced with glycine (protein, UniProt P30125 2-363, looked up, variant L96G V198G) 3-isopropylmalate …: SKNYHIAVLPGDGIGPEVMTQALKVLDAVRNRFAMRITTSHYDVGGAAIDNHGQPLPPATVEGCEQADAVLFGSVGGPKWEHLPPDQQPERGALGPLRKHFKLFSNLRPAKLYQGLEAFCPLRADIAANGFDILCVRELTGGIYFGQPKGREGSGQYEKAFDTEVYHRFEIERIARIAFESARKRRHKVTSIDKANGLQSSILWREIVNEIATEYPDVELAHMYIDNATMQLIKDPSQFDVLLCSNLFGDILSDECAMITGSMGMLPSASLNEQGFGLYEPAGGSAPDIAGKNIANPIAQILSLALLLRYSLDADDAACAIERAINRALEEGIRTGDLARGAAAVSTDEMGDIIARYVAEGV	0.02	0.08	3.6	higher activity than the wild type enzyme	–	–	–	–	–	–
L96V/V198G: E. coli LeuB variant with Leu-96 replaced with valine and Val-198 with glycine (protein, UniProt P30125 2-363, looked up, variant L96V V198G) 3-isopropylmalate …: SKNYHIAVLPGDGIGPEVMTQALKVLDAVRNRFAMRITTSHYDVGGAAIDNHGQPLPPATVEGCEQADAVLFGSVGGPKWEHLPPDQQPERGALVPLRKHFKLFSNLRPAKLYQGLEAFCPLRADIAANGFDILCVRELTGGIYFGQPKGREGSGQYEKAFDTEVYHRFEIERIARIAFESARKRRHKVTSIDKANGLQSSILWREIVNEIATEYPDVELAHMYIDNATMQLIKDPSQFDVLLCSNLFGDILSDECAMITGSMGMLPSASLNEQGFGLYEPAGGSAPDIAGKNIANPIAQILSLALLLRYSLDADDAACAIERAINRALEEGIRTGDLARGAAAVSTDEMGDIIARYVAEGV	0.05	0.04	–	–	–	–	–	–	–	–

Source: patent publication US9951356B2, “Processes to prepare elongated 2-ketoacids and C6-C10 compounds therefrom via genetic modifications to microbial metabolic pathways” (Dow Global Technologies LLC, priority 2013, dated 2018)
